We go through 1 molecule from paper PMC3462482 (Nature structural & molecular biology, 2012).

The test addresses T1, PatGmac H618A (Prochloron sp., UniProt Q52QJ1 492-851, H618A).
T1 sequence: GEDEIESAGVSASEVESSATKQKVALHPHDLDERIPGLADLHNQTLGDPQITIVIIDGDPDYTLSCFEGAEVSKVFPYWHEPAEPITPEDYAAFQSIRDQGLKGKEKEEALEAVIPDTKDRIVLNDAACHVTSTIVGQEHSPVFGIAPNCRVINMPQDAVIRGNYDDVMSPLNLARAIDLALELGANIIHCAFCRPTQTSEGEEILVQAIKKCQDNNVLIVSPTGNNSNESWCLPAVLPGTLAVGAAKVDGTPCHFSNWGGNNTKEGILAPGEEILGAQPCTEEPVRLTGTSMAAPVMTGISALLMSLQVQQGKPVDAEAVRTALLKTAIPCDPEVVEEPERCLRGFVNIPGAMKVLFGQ
The test can be described thus: crystal structure.

Consider VPAPIPFPAYDG [VPAPIPFPAYDG peptide (substrate mimic)], for which the binding result is given as “binds”.
